We go through one protein from patent publication US20140314790.

This data set concerns the target T1, N3-2A, Modulator of β-cleavage of APP (MoBA).
T1 chain: DAVYYCGLKY

B1: purified β-secretase (protein)
chain: ETDEEPEEPGRRGSFVEMVDNLRGKSGQGYYVEMTVGSPPQTLNILVDTGSSNFAVGAAPHPFLHRYYQRQLSSTYRDLRKGVYVPYTQGKWEGELGTDLVSIPHGPNVTVRANIAAITESDKFFINGSNWEGILGLAYAEIARPDDSLEPFFDSLVKQTHVPNLFSLQLCGAGFPLNQSEVLASVGGSMIIGGIDHSLYTGSLWYTPIRREWYYEVIIVRVEINGQDLKMDCKEYNYDKSIVDSGTTNLRLPKKVFEAAVKSIKAASSTEKFPDGFWLGEQLVCWQAGTTPWNIFPVISLYLMGEVTNQSFRITILPQQYLRPVEDVATSQDDCYKFAISQSSTGTVMGAVIMEGFYVVFDRARKRIGFAVSACHVHDEFRTAAVEGPFVTLDMEDCGYNIPQTDESTLMT
Take B1: the “activity of purified β-secretase on a fluorescent substrate (FRET assay)” value is “N3-2A did not inhibit the activity of purified β-secretase”.
